The assay has as its target Toll-like receptor 5 (TLR5), constitutively expressed on Caco-2 cells (UniProt O60602). Briefly: cell-based or functional assay.
UniProt O60602, sequence (O60602 21-858 limits assumed): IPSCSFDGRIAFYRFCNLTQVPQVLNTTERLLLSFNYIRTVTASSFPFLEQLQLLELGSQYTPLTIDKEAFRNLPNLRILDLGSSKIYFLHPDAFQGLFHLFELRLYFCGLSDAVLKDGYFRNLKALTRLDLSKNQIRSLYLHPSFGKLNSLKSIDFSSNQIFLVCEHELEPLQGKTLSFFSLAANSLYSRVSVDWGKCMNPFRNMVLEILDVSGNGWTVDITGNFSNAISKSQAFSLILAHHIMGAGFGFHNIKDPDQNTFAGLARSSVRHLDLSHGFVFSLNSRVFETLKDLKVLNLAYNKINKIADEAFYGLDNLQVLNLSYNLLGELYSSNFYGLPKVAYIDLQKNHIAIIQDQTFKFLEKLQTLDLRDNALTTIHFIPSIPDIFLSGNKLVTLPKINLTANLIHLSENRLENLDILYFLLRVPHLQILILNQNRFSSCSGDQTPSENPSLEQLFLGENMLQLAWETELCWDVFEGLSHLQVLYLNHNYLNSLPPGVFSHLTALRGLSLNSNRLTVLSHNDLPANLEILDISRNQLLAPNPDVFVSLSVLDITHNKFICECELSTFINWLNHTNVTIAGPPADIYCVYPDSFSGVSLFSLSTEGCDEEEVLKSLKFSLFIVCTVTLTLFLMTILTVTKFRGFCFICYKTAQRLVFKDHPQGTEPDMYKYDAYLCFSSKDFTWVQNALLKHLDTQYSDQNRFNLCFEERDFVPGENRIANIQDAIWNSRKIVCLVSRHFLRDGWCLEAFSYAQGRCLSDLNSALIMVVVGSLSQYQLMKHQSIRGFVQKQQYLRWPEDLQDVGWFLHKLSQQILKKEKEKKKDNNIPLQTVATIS

“flagellin protein FliC from Salmonella enterica J341, recombinant, with C-terminal 6-histidine tag (from UniProt P06177 1-505) (ligand)” returned a dose at which the stimulating activity (IL-8 and MCP-1 release of Caco-2 cells) reached saturation greater than 1000 ng/mL.

The values are drawn from patent US20110230643A1.
